Test results as given in patent US20030124505.

Target: RecA recombinase (UniProt P0A7G6)
Details: second round manual capture from 1:10,000 pHPRT:pUC library; automated 59%; first round 2% and 1.35%

Chain of RecA recombinase (P0A7G6 2-353): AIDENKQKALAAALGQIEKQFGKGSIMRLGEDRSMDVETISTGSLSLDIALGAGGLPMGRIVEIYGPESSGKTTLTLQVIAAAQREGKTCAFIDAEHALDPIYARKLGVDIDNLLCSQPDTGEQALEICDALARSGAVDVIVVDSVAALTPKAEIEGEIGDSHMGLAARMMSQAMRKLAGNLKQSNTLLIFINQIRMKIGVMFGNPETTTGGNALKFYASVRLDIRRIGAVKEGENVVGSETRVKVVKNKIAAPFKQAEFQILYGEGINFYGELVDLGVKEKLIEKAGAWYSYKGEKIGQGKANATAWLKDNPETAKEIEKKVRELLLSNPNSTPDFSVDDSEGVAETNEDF

Substance: 318 bp biotinylated HPRT cssDNA probe (primers hExo3-2A and h/m300B)
- activity (% pHPRT clones): 76
